# Measurements as given in the supplement of paper PMC10567573.
# ± gives the standard deviation.
# Assay: protein stability index of a GFP-peptide fusion (GPS, HEK-293T) (PSI 1-6); higher = more stable
# [1] = treatment: DMSO, c terminus: a fixed tail appended
# [2] = treatment: MLN4924 1 uM, 8 h, c terminus: a fixed tail appended
# [3] = treatment: DMSO, c terminus: native
# [4] = treatment: MLN4924 1 uM, 8 h, c terminus: native
# 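Further: 24-mer peptide tiles fused after GFP, lentivirally expressed, FACS-sorted into six equal bins by GFP/DsRed ratio, decoded by Illumina sequencing, PSI is the read-weighted mean bin number.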
Sequence,protein stability index [1],protein stability index [2],protein stability index [3],protein stability index [4]
LIDRSGRHFGTILNYLRDGSVPLP [KCTD13],2.37 ± 0.28,2.46 ± 0.32,–,–
LINYQDDAELATRAIPELTKLLND [CTNNB1],3.61 ± 0.37,3.59 ± 0.31,–,–
LISNASDALDKIRYESLTDPSKLD [HSP90AB1],3.75 ± 0.34,3.85 ± 0.41,–,–
LIVGRIAIGVSISLSSIATCVYIA [SLC2A12],3.09 ± 0.45,3.01 ± 0.39,–,–
LKDGYRLDEIPDDEDLDLIPPKSV [FAM219A],5.16 ± 0.15,5.3 ± 0.13,–,–
LKDTYASLGKTNVKDDELDAMLKE [MYL5],5.28 ± 0.21,5.35 ± 0.2,–,–
LKIPQVRGMDLSWESRTGDQYSYS [LCOR],2.87 ± 0.25,2.86 ± 0.31,–,–
LKKAKVQVERMREVNSRCYQPEPF [FBXO34],2.79 ± 0.61,2.84 ± 0.16,–,–
LKLANHQRPVSRQVTCLRTQVLED [TRAF3IP2],3.49 ± 0.35,3.58 ± 0.27,–,–
LKRAFEAANLPALVLKIMSGTFAP [NEK8],2.57 ± 0.59,2.71 ± 0.57,–,–
LKSSILIAMAVYTYLRLIVDHHGT [INTS3],3.51 ± 0.21,3.11 ± 0.27,–,–
LLADLKKCGDLECEALINRVSAMR [MIA2],2.53 ± 0.23,2.55 ± 0.32,–,–
LLAEKEEKLQKEQKELQDVGQSLR [SASS6],5.45 ± 0.23,5.35 ± 0.28,–,–
LLAIQFLEFFYGIATATEIAYYSY [SLC19A2],2.92 ± 1.3,3.13 ± 0.23,–,–
LLERQVEMTPEKFSVLMEKLCKKG [FANCE],3.03 ± 0.26,3.36 ± 0.19,–,–
LLIFGKELSAIGSDTTPLPSWAAL [SNX8],2.42 ± 0.37,2.13 ± 0.28,–,–
LLKIHEVSTVSHADADCFVCVFLS [CASP6],2.4 ± 0.17,2.4 ± 0.41,–,–
LLPRQPLPLGIKVYEDETKVVHAV [PALM],3.47 ± 0.28,3.48 ± 0.12,–,–
LLSTSLDAKDELEERLERCMSIVT [INTS3],3.38 ± 0.22,3.51 ± 0.37,–,–
LLYDDLYDDDIDDEDEEEEDADCY [UBE2R2],4.26 ± 0.18,4.41 ± 0.27,–,–
LNVRGGKPDDITVLLSIVAEYTD [PPTC7],–,–,3.45 ± 0.95,2.5 ± 0.44
LPAQPNRKPGMSSTARRSRAASSQ [CHMP4C],4.88 ± 0.16,4.87 ± 0.16,–,–

Sequence,protein stability index [1],protein stability index [2],protein stability index [3],protein stability index [4]
LPLALYTATFAVHFMVLSKSGPGD [POMT2],3.34 ± 0.33,3.01 ± 0.61,–,–
LPLTARWEYMHSPSENSKEAEILE [CPOX],4.94 ± 0.32,5.02 ± 0.17,–,–
LPPPSAPSLQPSRKLSPTEPKNYG [SCAMP3],4.79 ± 0.16,4.86 ± 0.24,–,–
LPPVSTSFTTGGLRIPFPRDCGEE [TNXB],4.62 ± 0.27,4.43 ± 0.18,–,–
LPVASSSTLLPLAPSNSTSLNSTF [NFE2L1],3.89 ± 0.11,3.65 ± 0.24,–,–
LPVYLKKDPAYFYGYVYFRQVRDK [DENND6A],2.59 ± 0.57,2.53 ± 0.47,–,–
LQKQGKYSGVGLLDHMVSIYLLI [RNF180],–,–,2.31 ± 0.92,2.88 ± 0.81
LQLFHQDGTFSPVTLALFFVLYFL [CLCN6],2.45 ± 0.64,2.13 ± 0.47,–,–
LQNQNFPYPVLFHNIFLLGGSSTS [NLN],2.15 ± 0.92,2.33 ± 0.4,–,–
LQTGPLLGRPDSLELQRQREARKR [RSPH3],4.83 ± 0.2,5.08 ± 0.31,–,–
LRADNAFMLLTQARLFDEPQLASL [BTBD1],2.46 ± 0.85,2.34 ± 0.47,–,–
LRADQEKERKKREERERKRRKEEE [FAF2],5.435 ± 0.02,5.35 ± 0.31,–,–
LRAGSSEFDSEHNLTSNEGHSLKN [RASAL3],4.67 ± 0.42,4.87 ± 0.64,–,–
LRDPATITTLRVPVLRPMDLMVEA [PPP2R2B],2.85 ± 0.15,2.94 ± 0.37,–,–
LRPTSVDPALRRRRRGPRNKKRGW [NOP53],4.64 ± 0.56,4.29 ± 0.23,–,–
LRYQFSRPGPQSVPLQLSAHWQCG [FCHO1],2.2 ± 0.09,2.12 ± 0.13,–,–
LSAANVCLDPIIYFFLCQPFREIL [P2RY14],3.28 ± 0.74,2.58 ± 0.77,–,–
LSAGSPPVPPGWNPNSSSGKGSGG [DLX1],4.86 ± 0.24,4.72 ± 0.1,–,–
LSALLRATPGEYSVNICGMNEHPV [SPAG8],2.27 ± 0.27,2.42 ± 0.16,–,–
LSKQAKFAYKDEYEKFKLYLTIIL [TMEM120A],2.61 ± 0.36,2.48 ± 0.54,–,–
LSLQKEQLQLKIIEIEDEAEKWQK [TRIM29],3.87 ± 0.094,3.9 ± 0.43,–,–
LSMLLTLKCEMNQMSGEPLDKLNF [ACSBG2],2.83 ± 0.46,2.29 ± 0.16,–,–
